{"source": "paper PMC11080044", "about": "“Contribution of a C-Terminal Extension to the Substrate Affinity and Oligomeric Stability of Aldehyde Dehydrogenase from Thermus thermophilus HB27” (Biochemistry, 2024)", "proteins": {"B1": {"name": "Aldehyde dehydrogenase from Thermus thermophilus HB27, native (ALDHTt-native) (enzyme, UniProt Q72KD3 1-530, looked up)", "chain": "MRKAAGKYGNTLEFGHLVGGEEVLEGPLLERRNPSDREDVVARFPEADKDLVRKAALKAREAFAEWSRTPAPIRGQVLFNLVKILEREKPTLTRLMVREVGKTPKEAAGDVQEAIDTALFFASEGRRLYGQTVPSEMRDKELFTFRRPLGVVGIITAGNFPIAVPSWKLIPAVLTGNTVVWKPSEDAPTLSFVFAKLFEEAGLPPGVLNVVFGGGKGSTGQWMVELMDEGLFQKFAFTGSTQVGRWIGEVAGRNLIRPTLELGGKNPLVVMRDADLDLAVEGAWWSAFATGGQRCTSAGNILVDAPIYEEFKRRFLERVEATLVGNPLLHPEVTYGPFINERFFARWQEHYRVGEAEGARLLFGRGRITRENPYPRFLGDPEAGLYGWPTVWEVRPGTRLFTEEVFGPTINLVKVDGIEEAIAVANSTPYGLSSAIYTNHRHWAYLFKVGIRAGMTSINNATVGAEAHLPFGGVKASGNGGRESGIWVLEEYTYWHAVNEEYSGRLQLAQMDTGYVSPKAPTPWGEVLGL", "notes": "Aldehyde dehydrogenase ALDHTt of Thermus thermophilus strain HB27, UniProtKB Q72KD3, 530 amino acids, with its 30-residue C-terminal tail; pET22b(+) construct"}, "B2": {"name": "ALDHTt-508, aldehyde dehydrogenase from Thermus thermophilus HB27 with a 22-amino acid truncation of the C-terminus (enzyme, UniProt Q72KD3 1-508, looked up)", "chain": "MRKAAGKYGNTLEFGHLVGGEEVLEGPLLERRNPSDREDVVARFPEADKDLVRKAALKAREAFAEWSRTPAPIRGQVLFNLVKILEREKPTLTRLMVREVGKTPKEAAGDVQEAIDTALFFASEGRRLYGQTVPSEMRDKELFTFRRPLGVVGIITAGNFPIAVPSWKLIPAVLTGNTVVWKPSEDAPTLSFVFAKLFEEAGLPPGVLNVVFGGGKGSTGQWMVELMDEGLFQKFAFTGSTQVGRWIGEVAGRNLIRPTLELGGKNPLVVMRDADLDLAVEGAWWSAFATGGQRCTSAGNILVDAPIYEEFKRRFLERVEATLVGNPLLHPEVTYGPFINERFFARWQEHYRVGEAEGARLLFGRGRITRENPYPRFLGDPEAGLYGWPTVWEVRPGTRLFTEEVFGPTINLVKVDGIEEAIAVANSTPYGLSSAIYTNHRHWAYLFKVGIRAGMTSINNATVGAEAHLPFGGVKASGNGGRESGIWVLEEYTYWHAVNEEYSGRLQL", "notes": "Aldehyde dehydrogenase ALDHTt of Thermus thermophilus strain HB27, UniProtKB Q72KD3, without the last 22 amino acids of the 530; also called truncated mutant"}}, "key": {"Q72KD3 [1]": {"target": "Q72KD3", "experiment": "SEC; SE-HPLC as in a1, after 5 min incubation at 65 °C and centrifugation at 10000 x g"}, "Q72KD3 [2]": {"target": "Q72KD3", "experiment": "SEC; SE-HPLC as in a1, after 10 min incubation at 65 °C and centrifugation at 10000 x g"}, "Q72KD3 [3]": {"target": "Q72KD3", "experiment": "SEC; SE-HPLC as in a1, after 15 min incubation at 65 °C and centrifugation at 10000 x g"}, "Q72KD3 [4]": {"target": "Q72KD3", "experiment": "SEC; SE-HPLC as in a1, after 20 min incubation at 65 °C and centrifugation at 10000 x g"}, "Q72KD3 [5]": {"target": "Q72KD3", "experiment": "SEC; SE-HPLC (AdvanceBio SEC 300 Å), untreated protein injected directly after thawing, 0.5 mg/mL, 10 mM potassium phosphate buffer pH 8.0, room temperature; oligomeric states from a calibration plot, percent of peak area, triplicate"}, "[6]": {"target": "the molecule itself", "experiment": "SEC; SE-HPLC (AdvanceBio SEC 300 Å), untreated protein injected directly after thawing, 0.5 mg/mL, 10 mM potassium phosphate buffer pH 8.0, room temperature; oligomeric states from a calibration plot, percent of peak area, triplicate"}, "[7]": {"target": "the molecule itself", "experiment": "SEC; SE-HPLC (AdvanceBio SEC 300 Å) of ALDHTt-508 purified after a 15 min heat shock of the lysate at 65 °C; 50 µL of 0.5 mg/mL, percent of total peak area"}}}
{"protein": "B1", "values": [{"measurement": "% dimer (SE-HPLC)", "setting": "Q72KD3 [1]", "result": 0, "unit": "%"}, {"measurement": "% monomer (SE-HPLC)", "setting": "Q72KD3 [1]", "result": 0, "unit": "%"}, {"measurement": "% tetramer (SE-HPLC)", "setting": "Q72KD3 [1]", "result": 97.7, "unit": "%"}, {"measurement": "% dimer (SE-HPLC)", "setting": "Q72KD3 [2]", "result": 0, "unit": "%"}, {"measurement": "% monomer (SE-HPLC)", "setting": "Q72KD3 [2]", "result": 0, "unit": "%"}, {"measurement": "% tetramer (SE-HPLC)", "setting": "Q72KD3 [2]", "result": 94.9, "unit": "%"}, {"measurement": "% dimer (SE-HPLC)", "setting": "Q72KD3 [3]", "result": 0, "unit": "%"}, {"measurement": "% monomer (SE-HPLC)", "setting": "Q72KD3 [3]", "result": 0, "unit": "%"}, {"measurement": "% tetramer (SE-HPLC)", "setting": "Q72KD3 [3]", "result": 93.7, "unit": "%"}, {"measurement": "% dimer (SE-HPLC)", "setting": "Q72KD3 [4]", "result": 0, "unit": "%"}, {"measurement": "% monomer (SE-HPLC)", "setting": "Q72KD3 [4]", "result": 0, "unit": "%"}, {"measurement": "% tetramer (SE-HPLC)", "setting": "Q72KD3 [4]", "result": 93.2, "unit": "%"}, {"measurement": "% dimer (SE-HPLC)", "setting": "Q72KD3 [5]", "result": 0, "unit": "%"}, {"measurement": "% monomer (SE-HPLC)", "setting": "Q72KD3 [5]", "result": 0, "unit": "%"}, {"measurement": "% tetramer (SE-HPLC)", "setting": "Q72KD3 [5]", "result": 98.8, "unit": "%"}, {"measurement": "stoichiometry N", "setting": "[6]", "result": 4}]}
{"protein": "B2", "values": [{"measurement": "% dimer (SE-HPLC)", "setting": "Q72KD3 [1]", "result": 0, "unit": "%"}, {"measurement": "% monomer (SE-HPLC)", "setting": "Q72KD3 [1]", "result": 0.87, "unit": "%"}, {"measurement": "% tetramer (SE-HPLC)", "setting": "Q72KD3 [1]", "result": 95.4, "unit": "%"}, {"measurement": "% dimer (SE-HPLC)", "setting": "Q72KD3 [2]", "result": 0, "unit": "%"}, {"measurement": "% monomer (SE-HPLC)", "setting": "Q72KD3 [2]", "result": 0.79, "unit": "%"}, {"measurement": "% tetramer (SE-HPLC)", "setting": "Q72KD3 [2]", "result": 93.1, "unit": "%"}, {"measurement": "% dimer (SE-HPLC)", "setting": "Q72KD3 [3]", "result": 0, "unit": "%"}, {"measurement": "% monomer (SE-HPLC)", "setting": "Q72KD3 [3]", "result": 0.55, "unit": "%"}, {"measurement": "% tetramer (SE-HPLC)", "setting": "Q72KD3 [3]", "result": 95.8, "unit": "%"}, {"measurement": "% dimer (SE-HPLC)", "setting": "Q72KD3 [4]", "result": 0, "unit": "%"}, {"measurement": "% monomer (SE-HPLC)", "setting": "Q72KD3 [4]", "result": 0.71, "unit": "%"}, {"measurement": "% tetramer (SE-HPLC)", "setting": "Q72KD3 [4]", "result": 91.4, "unit": "%"}, {"measurement": "% of fully folded protein in the tetrameric peak", "setting": "[7]", "result": "6.4 ± 1.5", "unit": "%"}, {"measurement": "% dimer (SE-HPLC)", "setting": "Q72KD3 [5]", "result": 1.71, "unit": "%"}, {"measurement": "% monomer (SE-HPLC)", "setting": "Q72KD3 [5]", "result": 2.5, "unit": "%"}, {"measurement": "% tetramer (SE-HPLC)", "setting": "Q72KD3 [5]", "result": 90, "unit": "%"}, {"measurement": "stoichiometry N", "setting": "[6]", "result": 4}]}
